The chains are these.
B1: 78F 102I 72A (protein, listed as Rattus norvegicus)
chain: AFDGTWKVDRNENYEKFMEKMGINVVKRKLGAHDNLKLTITQEGNKFTVKESSNFRNIDVVFELGVDFAYSAADGTEFTGTWTMEGNKLVGKFKRVDNGKEIIAVREISGNELIQTYTYEGVEAKRIFKKE
modifications: PEPTIDE (1)...(131) wild-type rat intestinal fatty acid binding protein
B2: 38Q 62I 106I 117A 72A (protein, listed as Rattus norvegicus)
chain: B1 chain with L38Q, F62I, F78L, I102L, R106I, Y117A
modifications: PEPTIDE (1)...(131) wild-type rat intestinal fatty acid binding protein
B3: 14L 18L 73L 117A 72A (protein, listed as Rattus norvegicus)
chain: B1 chain with Y14L, M18L, A73L, F78L, I102L, Y117A
modifications: PEPTIDE (1)...(131) wild-type rat intestinal fatty acid binding protein
B4: 72T 73Q 74S (protein, listed as Rattus norvegicus)
chain: B1 chain with A72T, A73Q, D74S, F78L, I102L
modifications: PEPTIDE (1)...(131) wild-type rat intestinal fatty acid binding protein
B5: 14L 18I 31L 73F 117A 72A (protein, listed as Rattus norvegicus)
chain: B1 chain with Y14L, M18I, G31L, A73F, F78L, I102L, Y117A
modifications: PEPTIDE (1)...(131) wild-type rat intestinal fatty acid binding protein
B6: 14L 18L 31L 73G 117V 72A (protein, listed as Rattus norvegicus)
chain: B1 chain with Y14L, M18L, G31L, A73G, F78L, I102L, Y117V
modifications: PEPTIDE (1)...(131) wild-type rat intestinal fatty acid binding protein
B7: 72H 73Y 74G (protein, listed as Rattus norvegicus)
chain: B1 chain with A72H, A73Y, D74G, F78L, I102L
modifications: PEPTIDE (1)...(131) wild-type rat intestinal fatty acid binding protein
B8: 38A 106V 117A 72A (protein, listed as Rattus norvegicus)
chain: B1 chain with L38A, F78L, I102L, R106V, Y117A
modifications: PEPTIDE (1)...(131) wild-type rat intestinal fatty acid binding protein
B9: 14W 18L 117S 72A (protein, listed as Rattus norvegicus)
chain: B1 chain with Y14W, M18L, F78L, I102L, Y117S
modifications: PEPTIDE (1)...(131) wild-type rat intestinal fatty acid binding protein
B10: 62N 106F 117A 72A (protein, listed as Rattus norvegicus)
chain: B1 chain with F62N, F78L, I102L, R106F, Y117A
modifications: PEPTIDE (1)...(131) wild-type rat intestinal fatty acid binding protein
B11: 18G 31W 73V 72A (protein, listed as Rattus norvegicus)
chain: B1 chain with M18G, G31W, A73V, F78L, I102L
modifications: PEPTIDE (1)...(131) wild-type rat intestinal fatty acid binding protein
B12: 14I 18L 31W 73V 117G 72A (protein, listed as Rattus norvegicus)
chain: B1 chain with Y14I, M18L, G31W, A73V, F78L, I102L, Y117G
modifications: PEPTIDE (1)...(131) wild-type rat intestinal fatty acid binding protein
B13: 38V 62V 117A 72A (protein, listed as Rattus norvegicus)
chain: B1 chain with L38V, F62V, F78L, I102L, Y117A
modifications: PEPTIDE (1)...(131) wild-type rat intestinal fatty acid binding protein
B14: 14I 18V 31W 73I 117V 72A (protein, listed as Rattus norvegicus)
chain: B1 chain with Y14I, M18V, G31W, A73I, F78L, I102L, Y117V
modifications: PEPTIDE (1)...(131) wild-type rat intestinal fatty acid binding protein
B15: 14L 18T 31E 73G 117G 72A (protein, listed as Rattus norvegicus)
chain: B1 chain with Y14L, M18T, G31E, A73G, F78L, I102L, Y117G
modifications: PEPTIDE (1)...(131) wild-type rat intestinal fatty acid binding protein
B16: 14L 18L 31W 73W 117L 72A (protein, listed as Rattus norvegicus)
chain: B1 chain with Y14L, M18L, G31W, A73W, F78L, I102L, Y117L
modifications: PEPTIDE (1)...(131) wild-type rat intestinal fatty acid binding protein

Numbering of substitutions follows the chain as printed.

This is an account of results in patent publication US20060257938A1, “Method of screening for drugs that block ligand binding to a lipid binding protein” (priority 2005, published 2006).

The first assay is described as follows: Probe fluorescence ratio response to linoleic acid relative to ADIFAB2. Format: binding. The conditions noted are these: response relative to ADIFAB2. Summed up:
(§1)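 Each fatty acid's response was expressed relative to ADIFAB2, the rI-FABP-L72A probe, as ΔR/ΔRreference. ΔR is the change in the background-corrected two-wavelength intensity ratio R=Fλ1/Fλ2 from its analyte-free baseline R0. Emission was read near about 420-480 nm for unbound and about 495-580 nm for FFA-bound probe.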
In the case of B1, the “DR/DR LA” value turned out to be 2.493.

As to B2, the “DR/DR LA” value stood at 1.288.

B3: the “DR/DR LA” value was found to be 0.657.

B4: the “DR/DR LA” value came out at 2.713.

With B5, the “DR/DR LA” value was found to be 0.707.

Turning to B6, the “DR/DR LA” value is recorded as 1.170.

B7: the “DR/DR LA” value is 0.472.

As for B8, the “DR/DR LA” value is 0.229.

Regarding B9, the “DR/DR LA” value is 1.063.

B10: the “DR/DR LA” value stood at 0.985.

On to B11, for which the “DR/DR LA” value is listed as 0.855.

Regarding B12, the “DR/DR LA” value stood at 2.047.

Consider B13, for which the “DR/DR LA” value was determined as 1.002.

Take B14: the “DR/DR LA” value came out at 1.668.

For B15, the “DR/DR LA” value came to 1.107.

For B16, the “DR/DR LA” value is recorded as 1.782.

A short description of a further assay: Probe fluorescence ratio response to arachidonic acid relative to ADIFAB2. Format: binding. The conditions noted are these: arachidonic acid; response relative to ADIFAB2. A digest of the protocol: as §1
As to B1, the “DR/DR AA” value was determined as 2.093.

Take B2: the “DR/DR AA” value came to 1.656.

With B3, the “DR/DR AA” value amounted to 0.905.

As for B4, the “DR/DR AA” value stood at 2.166.

Regarding B5, the “DR/DR AA” value is 1.297.

With B6, the “DR/DR AA” value is listed as 1.180.

For B7, the “DR/DR AA” value worked out at 0.600.

For B8, the “DR/DR AA” value turned out to be 1.492.

Consider B9, for which the “DR/DR AA” value was 0.976.

Turning to B10, the “DR/DR AA” value was found to be 1.265.

Consider B11, for which the “DR/DR AA” value is reported as 0.774.

In the case of B12, the “DR/DR AA” value was determined as 2.037.

Turning to B13, the “DR/DR AA” value stood at 0.984.

For the molecule B14, the “DR/DR AA” value was found to be 1.553.

B15: the “DR/DR AA” value is reported as 1.236.

Regarding B16, the “DR/DR AA” value amounted to 1.772.

The next assay can be described thus: Probe fluorescence ratio response to stearic acid relative to ADIFAB2. The following applies: response relative to ADIFAB2. Format: binding. Summed up: as §1
Regarding B1, the “DR/DR SA” value worked out at 1.877.

As for B2, the “DR/DR SA” value came to 0.663.

In the case of B3, the “DR/DR SA” value was found to be 0.031.

As for B4, the “DR/DR SA” value is reported as 1.792.

Turning to B5, the “DR/DR SA” value is recorded as 0.077.

With B6, the “DR/DR SA” value came to 0.170.

Consider B7, for which the “DR/DR SA” value is 0.052.

For B8, the “DR/DR SA” value came out at 0.065.

For the molecule B9, the “DR/DR SA” value is 0.297.

In the case of B10, the “DR/DR SA” value is reported as 0.490.

For the molecule B11, the “DR/DR SA” value was found to be 0.489.

Consider B12, for which the “DR/DR SA” value is 0.606.

Regarding B13, the “DR/DR SA” value is given as 0.495.

As to B14, the “DR/DR SA” value amounted to 0.283.

B15: the “DR/DR SA” value came out at 0.413.

B16: the “DR/DR SA” value is 0.294.

Another assay is described as follows: Probe fluorescence ratio response to palmitoleic acid relative to ADIFAB2. It counts as binding. The conditions noted are these: response relative to ADIFAB2. A digest of the protocol:
as §1
Take B1: the “DR/DR POA” value is reported as 2.022.

Consider B2, for which the “DR/DR POA” value turned out to be 0.473.

For the molecule B3, the “DR/DR POA” value came to 0.410.

As for B4, the “DR/DR POA” value amounted to 3.110.

Regarding B5, the “DR/DR POA” value is listed as 0.235.

Turning to B6, the “DR/DR POA” value was found to be 0.180.

B7: the “DR/DR POA” value was 0.986.

Take B8: the “DR/DR POA” value was found to be 0.121.

With B9, the “DR/DR POA” value is given as 0.811.

As to B10, the “DR/DR POA” value came to 0.341.

As to B11, the “DR/DR POA” value was determined as 0.770.

On to B12, for which the “DR/DR POA” value worked out at 1.770.

As to B13, the “DR/DR POA” value was 0.668.

With B14, the “DR/DR POA” value is 1.411.

Consider B15, for which the “DR/DR POA” value came out at 1.072.

B16: the “DR/DR POA” value was determined as 2.059.

Another assay is described as follows: Probe fluorescence ratio response to linolenic acid relative to ADIFAB2. Format: binding. The conditions noted are these: response relative to ADIFAB2. Summed up:
as §1
As to B1, the “DR/DR LNA” value is on record as 2.322.

With B2, the “DR/DR LNA” value is recorded as 0.930.

Turning to B3, the “DR/DR LNA” value worked out at 0.641.

In the case of B4, the “DR/DR LNA” value is recorded as 2.419.

Regarding B5, the “DR/DR LNA” value amounted to 0.639.

On to B6, for which the “DR/DR LNA” value is listed as 1.139.

In the case of B7, the “DR/DR LNA” value is 0.591.

As for B8, the “DR/DR LNA” value is 0.541.

In the case of B9, the “DR/DR LNA” value came to 0.835.

For the molecule B10, the “DR/DR LNA” value amounted to 0.756.

Consider B11, for which the “DR/DR LNA” value was 0.705.

As to B12, the “DR/DR LNA” value was determined as 1.960.

In the case of B13, the “DR/DR LNA” value is 1.153.

On to B14, for which the “DR/DR LNA” value is 1.495.

For B15, the “DR/DR LNA” value was found to be 1.133.

Turning to B16, the “DR/DR LNA” value was 1.640.

Another assay is described as follows: Probe fluorescence ratio response to oleic acid relative to ADIFAB2. It counts as binding. The conditions noted are these: response relative to ADIFAB2. Summed up:
as §1
B1: the “DR/DR OA” value worked out at 2.506.

In the case of B2, the “DR/DR OA” value is reported as 1.167.

Turning to B3, the “DR/DR OA” value was 0.355.

For B4, the “DR/DR OA” value is given as 2.676.

On to B5, for which the “DR/DR OA” value turned out to be 0.300.

In the case of B6, the “DR/DR OA” value was found to be 0.031.

B7: the “DR/DR OA” value is 0.140.

Regarding B8, the “DR/DR OA” value was determined as 0.368.

In the case of B9, the “DR/DR OA” value is recorded as 0.904.

With B10, the “DR/DR OA” value is given as 0.864.

Turning to B11, the “DR/DR OA” value was 0.942.

On to B12, for which the “DR/DR OA” value came to 1.756.

For the molecule B13, the “DR/DR OA” value is listed as 1.668.

Consider B14, for which the “DR/DR OA” value is 0.887.

Consider B15, for which the “DR/DR OA” value amounted to 1.096.

B16: the “DR/DR OA” value was 1.085.

Another assay in a line: Probe fluorescence ratio response to palmitic acid relative to ADIFAB2. Format: binding. The following applies: response relative to ADIFAB2. Summed up:
as §1
With B1, the “DR/DR PA” value came out at 1.434.

Take B2: the “DR/DR PA” value is 0.550.

With B3, the “DR/DR PA” value amounted to 0.071.

Take B4: the “DR/DR PA” value was found to be 2.646.

For B5, the “DR/DR PA” value turned out to be 0.121.

Turning to B6, the “DR/DR PA” value was 0.377.

As to B7, the “DR/DR PA” value was found to be 0.486.

As for B8, the “DR/DR PA” value was 0.033.

Consider B9, for which the “DR/DR PA” value is given as 0.377.

For the molecule B10, the “DR/DR PA” value is reported as 0.430.

Consider B11, for which the “DR/DR PA” value worked out at 0.463.

For the molecule B12, the “DR/DR PA” value is listed as 1.236.

With B13, the “DR/DR PA” value was 0.478.

In the case of B14, the “DR/DR PA” value was found to be 0.652.

As to B15, the “DR/DR PA” value was determined as 0.712.

Turning to B16, the “DR/DR PA” value worked out at 0.970.
